# Source: the supplement of paper PMC10065799, “High-throughput profiling of sequence recognition by tyrosine kinases and SH2 domains using bacterial peptide display” (eLife, 2023)
# Assays:
# MERTK = MERTK (UniProt Q12866); assay: phosphorylation enrichment, bacterial display (enrichment ratio); higher = better substrate or ligand; peptides without Tyr show the background
# Fer (mouse) = assay: as above
# FGFR3 = FGFR3 (UniProt P22607); assay: as above
# Jak2 = Jak2 (UniProt O60674); assay: as above
# FGFR1 = FGFR1 (UniProt P11362); assay: as above
# Fyn = Fyn (UniProt P06241); assay: as above
# c-Abl (mouse) = assay: as above
# Hck = Hck (UniProt P08631); assay: as above
# Fes = Fes (UniProt P07332); assay: as above
# AncSZ = assay: as above
# EPHB2 = EPHB2 (UniProt P29323); assay: as above
# c-Src = assay: as above
# EPHB1 = EPHB1 (UniProt P54762); assay: as above
# c-Src SH2 = assay: SH2 binding enrichment of the phosphorylated peptide, bacterial display (enrichment ratio); higher = better substrate or ligand; peptides without Tyr show the background
# Grb2 SH2 = Grb2 SH2 (UniProt P62993); assay: as above
# SHP2-C SH2 = assay: as above
# 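Wherever SH2 binding enrichment of the phosphorylated peptide, bacterial display is given: peptide library displayed on the E. coli surface as eCPX fusions, selected cells deep-sequenced, score is each peptide's frequency after selection divided by its frequency in the input.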
# 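Wherever phosphorylation enrichment, bacterial display is given: 11-residue human phosphosite peptides and single-mutation variants displayed on the E. coli surface, counted by deep sequencing, each peptide's frequency after selection divided by its frequency in the unselected input library; frequency after pTyr selection over input frequency; kinase dosed for 20-30% of maximal phosphorylation in three min.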
# Chain of MERTK (Q12866 whole entry, looked up): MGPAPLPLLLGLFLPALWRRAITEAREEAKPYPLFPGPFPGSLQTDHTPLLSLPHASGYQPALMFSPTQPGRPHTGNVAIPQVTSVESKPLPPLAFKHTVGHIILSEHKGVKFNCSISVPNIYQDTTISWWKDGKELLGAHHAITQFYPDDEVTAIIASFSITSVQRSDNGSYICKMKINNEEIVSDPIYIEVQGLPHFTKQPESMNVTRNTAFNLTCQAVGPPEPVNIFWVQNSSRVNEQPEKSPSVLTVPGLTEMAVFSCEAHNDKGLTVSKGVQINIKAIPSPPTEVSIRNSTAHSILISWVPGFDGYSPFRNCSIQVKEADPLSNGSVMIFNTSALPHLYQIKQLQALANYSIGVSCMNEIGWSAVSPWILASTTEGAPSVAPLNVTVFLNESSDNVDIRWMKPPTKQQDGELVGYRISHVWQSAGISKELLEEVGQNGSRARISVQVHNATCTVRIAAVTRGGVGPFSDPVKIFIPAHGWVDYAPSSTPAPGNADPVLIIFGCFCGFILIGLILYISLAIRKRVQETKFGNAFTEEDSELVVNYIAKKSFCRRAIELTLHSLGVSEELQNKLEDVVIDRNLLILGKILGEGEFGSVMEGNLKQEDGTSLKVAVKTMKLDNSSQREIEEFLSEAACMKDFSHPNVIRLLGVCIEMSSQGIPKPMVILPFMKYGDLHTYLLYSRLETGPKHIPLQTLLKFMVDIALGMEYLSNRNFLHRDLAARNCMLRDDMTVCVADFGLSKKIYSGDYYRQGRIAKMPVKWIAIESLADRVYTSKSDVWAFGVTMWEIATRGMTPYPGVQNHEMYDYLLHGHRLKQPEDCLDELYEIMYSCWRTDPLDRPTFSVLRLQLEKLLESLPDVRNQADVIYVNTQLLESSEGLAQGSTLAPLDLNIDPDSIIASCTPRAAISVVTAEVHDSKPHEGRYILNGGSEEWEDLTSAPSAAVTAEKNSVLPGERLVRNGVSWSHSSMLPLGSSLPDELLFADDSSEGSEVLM
# Chain of Hck (P08631 whole entry, looked up): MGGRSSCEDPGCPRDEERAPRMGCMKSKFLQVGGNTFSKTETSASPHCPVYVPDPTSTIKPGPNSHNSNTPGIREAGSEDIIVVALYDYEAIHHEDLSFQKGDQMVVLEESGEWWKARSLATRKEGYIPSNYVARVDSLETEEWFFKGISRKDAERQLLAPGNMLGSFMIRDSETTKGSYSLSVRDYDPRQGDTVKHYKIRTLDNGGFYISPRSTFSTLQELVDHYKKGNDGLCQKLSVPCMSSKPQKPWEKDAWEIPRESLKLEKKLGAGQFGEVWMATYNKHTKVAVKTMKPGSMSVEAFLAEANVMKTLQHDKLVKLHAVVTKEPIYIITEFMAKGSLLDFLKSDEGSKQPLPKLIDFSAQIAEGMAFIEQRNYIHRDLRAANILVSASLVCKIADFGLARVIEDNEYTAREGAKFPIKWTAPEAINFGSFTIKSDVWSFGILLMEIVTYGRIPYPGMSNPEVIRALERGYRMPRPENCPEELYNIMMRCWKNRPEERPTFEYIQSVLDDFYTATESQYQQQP
# Chain of FGFR3 (P22607 whole entry, looked up): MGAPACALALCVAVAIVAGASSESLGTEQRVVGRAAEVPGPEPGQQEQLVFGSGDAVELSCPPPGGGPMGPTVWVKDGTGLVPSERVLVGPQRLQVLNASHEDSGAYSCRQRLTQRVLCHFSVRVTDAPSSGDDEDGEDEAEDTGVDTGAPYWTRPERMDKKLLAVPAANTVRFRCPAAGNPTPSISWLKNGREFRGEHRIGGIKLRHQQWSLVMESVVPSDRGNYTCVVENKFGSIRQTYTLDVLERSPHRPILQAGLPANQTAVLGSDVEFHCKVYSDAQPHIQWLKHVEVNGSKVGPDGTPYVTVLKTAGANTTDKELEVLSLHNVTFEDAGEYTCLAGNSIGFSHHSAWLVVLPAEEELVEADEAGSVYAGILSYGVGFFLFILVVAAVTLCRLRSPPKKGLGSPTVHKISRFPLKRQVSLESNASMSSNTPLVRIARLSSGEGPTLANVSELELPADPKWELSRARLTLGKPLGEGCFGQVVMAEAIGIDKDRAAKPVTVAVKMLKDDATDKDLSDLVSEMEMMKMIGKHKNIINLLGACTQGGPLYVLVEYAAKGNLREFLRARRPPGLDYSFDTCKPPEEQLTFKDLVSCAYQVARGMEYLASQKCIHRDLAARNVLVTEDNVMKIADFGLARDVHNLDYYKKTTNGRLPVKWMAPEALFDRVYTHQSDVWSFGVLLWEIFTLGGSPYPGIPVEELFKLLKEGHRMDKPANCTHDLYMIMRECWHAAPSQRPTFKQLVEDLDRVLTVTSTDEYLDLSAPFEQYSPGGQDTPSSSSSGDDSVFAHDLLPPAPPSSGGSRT
# Chain of EPHB2 (P29323 whole entry, looked up): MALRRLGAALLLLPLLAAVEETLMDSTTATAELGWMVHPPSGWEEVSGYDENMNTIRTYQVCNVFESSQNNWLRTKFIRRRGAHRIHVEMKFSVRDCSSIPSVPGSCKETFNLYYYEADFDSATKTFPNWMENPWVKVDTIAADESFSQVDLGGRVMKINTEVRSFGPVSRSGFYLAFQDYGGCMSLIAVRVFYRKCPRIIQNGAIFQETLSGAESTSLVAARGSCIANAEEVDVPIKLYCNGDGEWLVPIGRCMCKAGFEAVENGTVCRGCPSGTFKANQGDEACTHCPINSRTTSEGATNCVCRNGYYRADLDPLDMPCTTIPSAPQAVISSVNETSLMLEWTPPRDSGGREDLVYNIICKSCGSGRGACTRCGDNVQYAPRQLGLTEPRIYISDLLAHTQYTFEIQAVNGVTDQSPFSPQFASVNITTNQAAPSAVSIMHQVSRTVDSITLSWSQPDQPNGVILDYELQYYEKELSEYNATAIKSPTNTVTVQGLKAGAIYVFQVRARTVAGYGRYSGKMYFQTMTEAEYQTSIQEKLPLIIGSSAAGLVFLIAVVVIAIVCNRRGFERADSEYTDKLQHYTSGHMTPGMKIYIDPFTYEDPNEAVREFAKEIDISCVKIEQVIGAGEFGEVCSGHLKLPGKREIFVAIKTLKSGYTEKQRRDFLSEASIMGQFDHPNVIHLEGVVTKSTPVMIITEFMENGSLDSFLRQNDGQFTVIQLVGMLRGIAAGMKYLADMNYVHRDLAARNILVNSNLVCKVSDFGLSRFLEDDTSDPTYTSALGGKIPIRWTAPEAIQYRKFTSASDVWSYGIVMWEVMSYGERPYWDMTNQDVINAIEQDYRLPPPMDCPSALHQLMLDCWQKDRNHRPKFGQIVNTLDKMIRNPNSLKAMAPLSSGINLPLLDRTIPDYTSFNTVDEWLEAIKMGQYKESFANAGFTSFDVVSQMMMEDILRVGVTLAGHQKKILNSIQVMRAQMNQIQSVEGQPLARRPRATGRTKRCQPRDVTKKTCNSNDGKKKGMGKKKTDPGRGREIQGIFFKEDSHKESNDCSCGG
# Chain of Fyn (P06241 whole entry, looked up): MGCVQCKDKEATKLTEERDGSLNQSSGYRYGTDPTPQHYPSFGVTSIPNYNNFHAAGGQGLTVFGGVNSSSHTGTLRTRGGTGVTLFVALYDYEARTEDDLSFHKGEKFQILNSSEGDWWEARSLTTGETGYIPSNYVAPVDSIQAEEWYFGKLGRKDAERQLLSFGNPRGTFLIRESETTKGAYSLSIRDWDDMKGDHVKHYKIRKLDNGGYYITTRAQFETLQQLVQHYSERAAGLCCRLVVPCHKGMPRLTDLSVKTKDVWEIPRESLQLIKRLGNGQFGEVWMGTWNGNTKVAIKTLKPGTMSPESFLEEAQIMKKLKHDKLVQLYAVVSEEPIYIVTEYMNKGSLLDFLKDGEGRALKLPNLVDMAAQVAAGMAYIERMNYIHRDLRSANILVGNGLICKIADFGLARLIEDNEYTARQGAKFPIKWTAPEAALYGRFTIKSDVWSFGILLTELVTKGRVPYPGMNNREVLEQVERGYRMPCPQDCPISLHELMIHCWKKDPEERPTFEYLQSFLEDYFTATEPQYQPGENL
# Chain of Fes (P07332 whole entry, looked up): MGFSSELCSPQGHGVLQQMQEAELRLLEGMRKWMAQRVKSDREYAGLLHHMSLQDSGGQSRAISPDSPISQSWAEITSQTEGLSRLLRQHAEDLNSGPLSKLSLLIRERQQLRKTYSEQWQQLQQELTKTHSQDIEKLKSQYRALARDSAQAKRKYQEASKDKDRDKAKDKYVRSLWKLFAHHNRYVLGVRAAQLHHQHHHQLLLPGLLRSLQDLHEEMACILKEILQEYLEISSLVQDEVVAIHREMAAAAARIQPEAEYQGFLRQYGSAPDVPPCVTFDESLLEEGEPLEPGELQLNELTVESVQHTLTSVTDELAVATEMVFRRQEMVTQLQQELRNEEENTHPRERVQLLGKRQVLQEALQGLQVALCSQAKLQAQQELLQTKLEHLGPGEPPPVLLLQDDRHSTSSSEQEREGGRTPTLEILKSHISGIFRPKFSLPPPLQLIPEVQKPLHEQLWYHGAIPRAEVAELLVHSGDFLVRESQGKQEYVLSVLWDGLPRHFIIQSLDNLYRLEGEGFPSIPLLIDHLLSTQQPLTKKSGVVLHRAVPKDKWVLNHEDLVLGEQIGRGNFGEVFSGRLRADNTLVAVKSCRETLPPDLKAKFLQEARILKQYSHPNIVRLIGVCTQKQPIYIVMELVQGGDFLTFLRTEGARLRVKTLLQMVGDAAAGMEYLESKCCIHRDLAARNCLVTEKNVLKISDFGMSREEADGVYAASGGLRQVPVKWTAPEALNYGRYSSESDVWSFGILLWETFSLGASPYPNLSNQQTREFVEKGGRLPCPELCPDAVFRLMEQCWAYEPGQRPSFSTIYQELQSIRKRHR
Sequence,SH2 binding enrichment (c-Src SH2),SH2 binding enrichment (Grb2 SH2),SH2 binding enrichment (SHP2-C SH2),phosphorylation enrichment (MERTK),phosphorylation enrichment (Fer (mouse)),phosphorylation enrichment (FGFR3),phosphorylation enrichment (Jak2),phosphorylation enrichment (FGFR1),phosphorylation enrichment (Fyn),phosphorylation enrichment (c-Abl (mouse)),phosphorylation enrichment (Hck),phosphorylation enrichment (Fes),phosphorylation enrichment (AncSZ),phosphorylation enrichment (EPHB2),phosphorylation enrichment (c-Src),phosphorylation enrichment (EPHB1)
NQELIYEGQRL [TBK1_Y354_R357Q],0.352,0.537,0.709,1.52,11.6,0.739,0.956,0.628,7.4,2.65,7.73,1.42,1.71,1.11,6.85,1
NQNIGYELGHR [KCNN3_Y268_K269E],0.672,0.892,0.683,0.276,0.289,0.403,0.348,0.343,0.528,0.425,0.37,0.486,0.496,0.318,0.305,0.449
NTFEKYWPFFQ [GATM_Y103_YF],0.926,1.5,1.24,0.886,0.429,1.08,0.898,1.08,0.69,0.795,1.42,1.09,0.987,0.512,0.935,0.488
NTVLGYFIGRI [GARS1_Y408],0.637,1.14,1.08,0.423,0.479,0.617,0.735,0.443,0.427,0.634,0.495,1.09,0.973,0.44,0.348,0.48
NVQIVYKPVDL [MAPT_Y627_S622N],0.58,0.982,0.738,0.354,0.502,0.648,0.796,0.532,0.414,0.723,0.477,0.903,0.955,0.492,0.415,0.507
NWGSPYKSNGC [ZNF347_Y261],0.586,0.819,0.725,0.41,0.48,0.546,0.759,0.48,0.373,0.667,0.52,1.09,0.894,0.569,0.52,0.459
PATINYPFEKG [NDUFS8_Y84],0.663,1.09,0.587,0.556,0.595,0.565,0.776,0.521,1.04,0.491,0.342,1.18,0.88,0.218,0.674,0.65
PEADKYHLTFA [FGG_Y300_R301H_YF],0.301,0.637,0.254,0.75,0.802,1.5,1.98,0.725,0.73,2.22,0.939,1.8,1.88,0.788,1.03,2.12
PFTRNYFVQAV [CYBA_Y87_R90Q_YF],0.533,0.634,0.467,0.763,1.25,0.905,0.6,1.16,0.943,0.65,0.979,1.2,0.963,0.747,0.353,0.601
PGIRMYRVQYN [LRFN1_Y454_Q455R],0.507,0.838,0.714,0.527,0.989,0.713,0.626,0.58,0.486,0.675,0.62,1.08,0.759,0.586,0.473,0.744
PGLRGYPGLSG [COL4A2_Y306],0.383,0.958,0.698,0.599,0.449,0.468,1.45,0.621,0.481,0.508,0.505,0.87,0.709,0.442,0.674,0.894
PGQRVYVVAES [SHH_Y316_R321S],0.55,0.756,0.892,0.377,0.728,0.848,1.07,0.494,0.538,0.896,0.748,1.45,1.06,0.507,0.546,0.695
PIPAAYNKYDQ [CDC73_Y290_R292K],0.478,0.39,1.33,0.617,0.394,0.448,0.754,0.608,0.46,0.944,0.595,0.904,0.707,0.599,0.689,0.417
PLYGEYFTLQI [TP53_Y327_D324Y],0.444,0.816,0.809,9.96,3.72,14.9,15.3,17.6,16.3,9.14,11.6,2.44,4.94,18.6,12.6,15.8
PPNSPYIGSSP [KCNT1_Y740],0.371,0.783,0.557,0.422,0.382,0.362,0.417,0.537,0.464,0.572,0.457,0.557,0.501,0.468,0.352,0.493
PPSELYFVKVD [TERT_Y707_P704S],0.405,0.614,0.679,1.82,0.815,0.92,0.925,0.815,0.784,0.733,1.95,1.63,1.19,0.965,1.26,0.699
PPSLSYLSFEG [EXOSC3_Y143_A139P],0.504,1.07,0.814,0.602,0.451,0.713,1.36,0.595,0.464,0.702,0.517,0.886,0.756,0.448,1.1,0.556
PPVVNYEEDAR [FER_Y402],0.806,0.745,1.01,0.856,0.585,0.968,1.4,0.569,0.896,0.824,0.64,1.86,1.26,0.892,0.534,0.957
PSARTYCFKQE [KLHDC9_Y175_YF],0.632,0.944,0.622,0.429,0.415,0.571,0.624,0.469,0.622,0.491,0.413,0.802,0.743,0.595,0.494,0.386
PSGPAYRGAVP [ASAH1_Y43_T42A],0.49,0.72,0.455,0.476,0.533,0.423,0.736,0.809,0.539,0.758,0.459,0.759,0.664,0.431,0.506,0.74

# More lines, main results first:
SH2 binding enrichment (c-Src SH2),SH2 binding enrichment (Grb2 SH2),SH2 binding enrichment (SHP2-C SH2),Sequence,phosphorylation enrichment (MERTK),phosphorylation enrichment (Fer (mouse)),phosphorylation enrichment (FGFR3),phosphorylation enrichment (Jak2),phosphorylation enrichment (FGFR1),phosphorylation enrichment (Fyn),phosphorylation enrichment (c-Abl (mouse)),phosphorylation enrichment (Hck),phosphorylation enrichment (Fes),phosphorylation enrichment (AncSZ),phosphorylation enrichment (EPHB2),phosphorylation enrichment (c-Src),phosphorylation enrichment (EPHB1)
0.678,0.803,0.85,NRVEIYEKTVE [CYFIP1_Y108],0.5,0.582,0.696,1.27,0.523,0.511,0.919,0.628,1.18,1.07,0.654,0.599,0.713
0.402,0.741,0.612,PEADKYRLPYA [FGG_Y300_T303P],0.477,0.521,0.552,1.33,0.439,0.467,0.571,0.598,1,0.763,0.715,0.488,0.89
0.457,0.794,0.635,PEFMVYKPQME [CCRL2_Y170_V168M],0.464,0.476,0.867,0.898,0.592,0.494,0.685,0.661,1.06,1.03,0.624,0.884,0.665
0.63,1.05,0.823,PESCFYKESWL [IQGAP2_Y630_L629F],0.538,0.973,1.31,0.941,0.707,0.616,0.766,0.555,1.57,1.51,0.671,0.516,0.772
0.565,0.912,0.549,PEVSGYCHCAD [TG_Y234],0.936,1.14,1.56,2.21,1.11,0.976,1.83,1.08,2.79,2.1,1.4,1.2,3.57
1.61,1.11,0.908,PFQGAYLKINK [MYO1B_Y967_E969K],0.461,0.853,0.909,1.18,0.417,0.582,0.88,0.643,1.52,1.1,0.571,0.319,0.539
3.04,0.797,0.559,PGAGHYEDTIL [ALK_Y1604],0.597,6.12,0.881,0.896,0.664,0.809,0.765,0.786,1.16,1.15,0.597,0.391,0.871
1.04,1.39,1.72,PGGNIYISPLK [RB1_Y805],0.685,0.804,0.526,0.529,0.545,0.804,1.75,2.65,0.58,0.902,0.571,0.757,0.4
0.936,1.01,0.946,PKKKQYTSIHH [APP_Y728_L723P],0.656,0.595,0.928,0.85,0.71,0.757,0.617,0.755,0.849,0.646,0.646,0.457,0.441
0.395,0.85,0.375,PNATLYKMSSI [SERPINA7_Y40],0.361,0.397,0.495,0.358,0.406,0.35,0.472,0.401,0.55,0.592,0.325,0.349,0.456
0.482,0.944,0.823,PNLILYGDFRQ [MYH7_Y715_R712L],0.465,0.72,0.762,0.75,0.552,5.16,0.766,2.87,1.28,1.09,0.602,2.98,0.688
0.481,0.869,0.759,PPNSPYMGSSP [KCNT1_Y740_I741M],0.468,0.612,0.818,0.825,0.632,0.546,0.782,0.521,0.868,1.01,0.536,0.59,0.497
0.842,1.04,0.948,PRIKTYMRPSP [TDP1_Y497_H493R],0.44,0.378,0.522,0.49,0.451,0.366,0.425,0.36,0.65,0.493,0.465,0.474,0.317
